{"source": "paper PMC5148066", "molecules": {"B1": {"name": "mouse CCL19 (ligand)", "chain": "GANDAEDCCLSVTQRPIPGNIVKAFRYLLNEDGCRVPAVVFTTLRGYQLCAPPDQPWVDRIIRRLKKSSAKNKGNSTRRSPVS"}, "B2": {"name": "mouse XCL1 (ligand)", "chain": "VGTEVLEESSCVNLQTQRLPVQKIKTYIIWEGAMRAVIFVTKRGLKICADPEAKWVKAAIKTVDGRASTRKNMAETVPTGAQRSTSTAITLTG"}, "B3": {"name": "mouse CXCL1 (ligand)", "chain": "APIANELRCQCLQTMAGIHLKNIQSLKVLPSGPHCTQTEVIATLKNGREACLDPEAPLVQKIVQKMLKGVPK"}, "B4": {"name": "mouse CXCL4 (ligand)", "chain": "VTSAGPEESDGDLSCVCVKTISSGIHLKHITSLEVIKAGRHCAVPQLIATLKNGRKICLDRQAPLYKKVIKKILES"}, "B5": {"name": "mouse CXCL2 (ligand)", "chain": "AVVASELRCQCLKTLPRVDFKNIQSLSVTPPGPHCAQTEVIATLKGGQKVCLDPEAPLVQKIIQKILNKGKAN"}, "B6": {"name": "mouse CCL3 (ligand)", "chain": "APYGADTPTACCFSYSRKIPRQFIVDYFETSSLCSQPGVIFLTKRNRQICADSKETWVQEYITDLELNA"}}, "data": [{"biological_target": "Bovine papular stomatitis virus chemokine-binding protein (Bovine papular stomatitis virus (strain V660 named for the sequence analysis))", "assay": "SEC-MALS; purified BPSV-CBP in solution, three concentrations (2, 1, 0.05 mg/ml)", "values": [{"molecule": "Bovine papular stomatitis virus chemokine-binding protein (natural protein)", "stoichiometry N": 2}]}, {"biological_target": "Bovine papular stomatitis virus chemokine-binding protein (Bovine papular stomatitis virus)", "assay": "SPR; BPSV-CBP immobilised on a CM5 chip (~500 RU, amine coupling, 10 mM sodium acetate pH 4.5); serial dilutions of mouse chemokines in HBS-EP pH 7.4 flowed in triplicate, 3 min association, 10 min dissociation, 25°C, Biacore X100; global fit, 1:1 binding model", "units": {"Kd": "nM", "koff": "s⁻¹", "kon": "M⁻¹ s⁻¹"}, "values": [{"molecule": "mouse CCL2 (from UniProt P10148 24-148) (ligand)", "Kd": 0.186, "koff": 0.00022, "kon": "1.18e+06"}, {"molecule": "mouse CCL21 (from UniProt P84444 24-133) (ligand)", "Kd": 0.385, "koff": 0.00296, "kon": "7.68e+06"}]}, {"biological_target": "Bovine papular stomatitis virus chemokine-binding protein (Bovine papular stomatitis virus (strain V660 named for the sequence analysis))", "assay": "SPR; BPSV-CBP immobilised on a CM5 chip (~500 RU) by amine coupling; serial dilutions of mouse chemokines in HBS-EP (20 mM HEPES, 150 mM NaCl, 3.4 mM EDTA, 0.005% Polysorbate 20, pH 7.4) run in triplicate, 3 min association, 10 min dissociation; 25°C, Biacore X100; global fit with a 1:1 binding model", "units": {"koff": "s⁻¹", "Kd": "nM", "kon": "M⁻¹ s⁻¹"}, "values": [{"molecule": "B1", "koff": "2e-05"}, {"molecule": "B2", "Kd": 1.4, "koff": 0.0014, "kon": "1e+06"}, {"molecule": "B3", "Kd": 4.3}, {"molecule": "B4", "Kd": 2.3}, {"molecule": "B5", "Kd": 0.725, "koff": 0.0006}]}, {"biological_target": "Bovine papular stomatitis virus chemokine-binding protein (Bovine papular stomatitis virus)", "assay": "SPR; BPSV-CBP immobilised on a CM5 chip (~500 RU, amine coupling, 10 mM sodium acetate pH 4.5); serial dilutions of mouse chemokines in HBS-EP pH 7.4 flowed in triplicate, 3 min association, 10 min dissociation, 25°C, Biacore X100; global fit, 1:1 binding model", "remark": "another data set of the same source", "units": {"Kd": "nM", "kon": "M⁻¹ s⁻¹", "koff": "s⁻¹"}, "values": [{"molecule": "B1", "Kd": 0.00146, "kon": "1.37e+07"}, {"molecule": "B2", "Kd": 1.36, "koff": 0.00135, "kon": 990000}, {"molecule": "B3", "Kd": 4.33, "koff": 0.00316, "kon": 730000}, {"molecule": "B4", "Kd": 2.32, "koff": 0.00234, "kon": "1.01e+06"}, {"molecule": "B5", "koff": 0.00056, "kon": 770000}, {"molecule": "B6", "Kd": 0.13, "koff": 0.00023, "kon": "1.76e+06"}]}]}
